Results published in the DeepSol protein solubility set.

test: soluble on expression in E. coli; label from the status in PepcDB or PDB records

Row | Sequence | soluble on expression in E. coli
1 | MPDTSFSNPGLFTPLQLGSLSLPNRVIMAPLTRSRTPDSVPGRLQQIYYGQRASAGLIISEATNISPTARGYVYTPGIWTDAQEAGWKGVVEAVHAKGGRIALQLWHVGRVSHELVQPDGQQPVAPSALKAEGAECFVEFEDGTAGLHPTSTPRALETDEIPGIVEDYRQAAQRAKRAGFDMVEVHAANACLPNQFLATGTNRRTDQYGGSIENRARFPLEVVDAVAEVFGPERVGIRLTPFLELFGLTDDEPEAMAFYLAGELDRRGLAYLHFNEPDWIGGDITYPEGFREQMRQRFKGGLIYCGNYDAGRAQARLDDNTADAVAFGRPFIANPDLPERFRLGAALNEPDPSTFYGGAEVGYTDYPFLDNGHDRLG | soluble
2 | MPEEIATLAGGCFWCTEAAFKLLRGVLEVVPGYAGGHVPHPTYEEVCTGTTGHREAVQVRFDPGVLPYADLLRYFFAVHDPTSEDRQGPDVGPQYSPAIFYHSEEQKRVAEAVMRELAPLYPKPIATKLLPFTTFYPAEAYHRDYFARHPEAPYCRFVIAPKLEKARKAFKSLLRP | soluble
3 | MPELPEVETVRRELEKRIVGQKIISIEATYPRMVLTGFEQLKKELTGKTIQGISRRGKYLIFEIGDDFRLISHLRMEGKYRLATLDAPREKHDHLTMKFADGQLIYADVRKFGTWELISTDQVLPYFLKKKIGPEPTYEDFDEKLFREKLRKSTKKIKPYLLEQTLVAGLGNIYVDEVLWLAKIHPEKETNQLIESSIHLLHDSIIEILQKAIKLGGSSIRTYSALGSTGKMQNELQVYGKTGEKCSRCGAEIQKIKVAGRGTHFCPVCQQK | soluble
4 | MPENSQPTTTEKGSEYLEQLANEAEELRKKLDQERHKLNDIPIQQAAERLDVMGALGVKQRRILKGHVGKVLCMDWSLDKRHIVSSSQDGKVIVWDGFTTNKEHALTMPTTWVMACAFSPSSQMIACGGLDNKCSVVPLSFEDDIIQKKRQVATHTSYMSCCTFLRSDNLILTGSGDSTCAIWDVESGQLIQNFHGHTGDVFAIDVPKCDTGNTFISAGADKHSLVWDIRSGQCVQSFEGHEADINTVRFHPNGDAFATGSDDATCRLFDLRADRQVCVYEKESILFPVNGVDFSLSGRILFAGYGDYRVGVWDSLKCARHSVLYGHENRISCLRTSPDGTAVCSASWDCTIRIWA | not soluble
5 | MPERLSRMSKKHKMVWGTLNGLDDWDYNVFELQAAIDGDDINCKNDQSGCGALFITMYALVVKYGFLRKFEINERIFLNWLSAVEGGYHANPYHNSMHAADVLHITHYLLSKGGLAELCKLNDRQVLAALFAAAIHDYNHPGINNNFSILTQTYNATLYNDRSVLENMHVASVFELMRNPALNILACFSEEHWRDFRNTVIDMVLATDMSLHEKYMTQFKRRLSEKRPFTEDCDQNLALAMALKLADISNCCRPLPLYLKWSERVSDEFYTQGDRERSLGMSCSPFMDRQTPMIAEGQTSFINYIFIPFLEVMAEFLPSMGFTLGLAAVCKSHRLVG | soluble
6 | MPEYSSVTGLEGVKFAPLKKENGFYVATKIIDYPYAINAKVNTETSTEKQYADNKLVDMAVTTGSTKLELEMRDLPMEILEELFGIEETDGIYMFKKNVIAPWVAMSFYGPKANGKNRHVGLVKGRFSLPDDEWKTKEEKTDFQTVKLSAEFMEREQDNAYKVLADEDAPNFNLDKFYEKVFGNAYKNPDSGSDNKSSVDIGKTVLEHHHHHH | soluble
7 | MPFHYPKLYMDHRGNMSTSSSLTSSTTATSSSSTGGVRKQILTLKPKQPNGYVQHLEIKAKESSQSSVISGGVPVPVTLLELKKKDRSEKNVVTNLKYRKPTANHHLDSVHSSSEHHHHHHLSLSSLTRRPGSPSSSGYETDSLVDQENCDVFSSLFNSSLSYQSALDHHHQFHELDMLHSHPIWSPQLPNNNTSLMMGSNSYYLQ | not soluble
8 | MPFILRRERSILKTALPPIRDDAVLCPLLPFQSAQLKEVERKHHAGTLSGNPHIQYRKILLHPHTTQSFLHVDEEVVCTSGKLLVLDFVMRFLQRTQHKLLVVCGWTLILDIVETLCGMRGIPYVRLDGRTMVKQREANIRGFNRSVANGNGVVEEAGGGGGDAEGDAATSRPRRNSRQRASTDTTGGPSPNADGRGDEEDGSSLPLATPCCFLISKVAGGAGLNLQAADTVFLLDVDYNPQRDAQALSRVYRVGQSKEVRVFRLIIDHAIEHDIVAIHEAKDDLGRAVVQAGCYDLHSSAHEREAALQGIFRAGALSRLSQQWTTTTRTADDTQGDSGEEEREEAVPSPCASFPPMTFPRCDLKDEGGADSDTEEVGKASPSPAQKSTDLHCVFISGGSGGARAMSSAPRKQVKTEMESEGSGRLADAADGEISVAVAGDVNPQCALLPHRRRRRHISFKLEKDDSEEGGGKAGRGDPAADPAGNARKLANPATAPLLFTAPPPHPSMTAAEVGEAVAAATARVQAPAEHRLAMRERLEEVLLRRKGERHVLEDMFRSV | soluble
9 | MPFIYRRRVQFYETDAQGIVHHSNYFRYFEEARGEFLRSKGFPYSKMRDMGLEVVLLNAYCEYKKPLFYDDVFEVHLNLEELSRFTFTFSYIVFKEDIAVAKANTKHCMVKNGKIVSIPKEVLEVLKD | soluble
10 | MPFLPPLTPPTELYVGIQLPNPISILVNYLPVRQTPIETLRNLVYSCDINTLAIDEFMTWPSLLQPESTFRPYFELLVERGSLKVFAKRATS | not soluble
11 | MPGAAAKGSELSERIEGFVETLKRGGGQRSSEDMARETLGLLRRLITDHHWNNAGDLMDLIRREGRRMTAAQPSETTVGNMVRRVLKIIREEYGRLHGRSDESDQQESLHKLLTSGGLSEDFSFHFAPLKANIIEAINELLVELEGTMENIAAQALEHIHSNEVIMTIGYSRTVEAFLKEAARKRKFHVIVAECAPFCQGHEMAVNLSKEGIETTVMTDAAIFAVMSRVNKVIIGTKTILANGSLRAVAGTHTLALAAKHHSTPLIVCAPMFKLSPQFPSEEDSFHKFVAPEEVLPFTEGDILEKVSVHCPVFDYVPPDLITLFISNIGGNAPSYIYRLMSELYHPDDHVL | not soluble
12 | MPGAPSFIALDWGTSSLRAWRFGESPNPQEKREFPWGIMKLPSQAATREDAFHDTFLRVCGDWLAQTPCPVLACGMLGSAQGWQSAAYLPCPVTLEGLAKQLTPVIHQQQTMLHIIPGVIKEGEMPEVMRGEETQIFGAISMEPALQNAIHQGMPVLIGLPGTHAKWAVVENNTITDFRTFMTGELFDVLSRHSILGATMHPGDEPHWDAFTHGLTAAQEHHQTGLLSTLFSTRSRLLTSNLTSSSQGDYLSGLLIGHELCGLASSLLRDLPATTPIALIGSANLNSRYSQAFSHVFPGRQIHAIPNATEQGLWRIAHAAGLLSTNARECTHAI | not soluble
13 | MPGGVSSPVRAFKSVGGQPIVFDHVKGAHIWDVDGNQYIDYVGSWGPAIVGHAHPEVIDALHAALEKGTSFGAPCLLENILAEMVIAAVPSVEMVRFVNSGTEACMAVLRLMRAYTQREKVIKFEGCYHGHADMFLVKAGSGVATLGLPDSPGVPKATTAATLTAPYNDLEAVSRLFEQYPNDIAGVILEPVVGNAGFIPPDAGFLEGLRELTKQYGALLVFDEVMTGFRIAYGGAQEKFGVTPDLTTLGKVIGGGLPVGAYGGRAEIMKMVAPAGPVYQAGTLSGNPLAMTAGIKTLEILSRPGSYEHLDRITGKLVQGLLDAAREFGHEVCGGHISGMFGLFFTAGPVTNYEQAKQSDLKKFAAFHRGMLEQGIYLAPSQFEAGFTSLAHTEADIERTIAAARTVLSQL | soluble
14 | MPGSLPPNGESSWPKDVGIVALEIYFPSQYVDQEELEKFDGVSAGKYTIGLGQSKMGFCSDREDINSLCLTAVQRLMERNNLSYDCIGRLEVGTETIIDKSKSVKTVLMQLFEESGNTDVEGIDTTNACYGGTAALFNAVNWVESSSWDGRYALVVAGDIAVYATGSARPTGGAGAVAMLVGPNATLVFERGLRGTHMQHAYDFYKPDMESEYPVVDGKLSIQCYLSALDHCYSTYRKKIHAQWQKEGTEKPFTLNDFGFMIFHSPYCKLVQKSFARLLVNDFISDSNPNTESGVYVGLDSFRDLKLEETYFDRDVEKAFLKASTELFNEKTKTSLLVSKENGNMYTPSVYGCLASVLAQYSPQQLAGQRIGVFSYGSGFAATLYSLRVSQDAMPGSSLDKLTSSLSDLKARLDSRKNVSPSIFADNMKLREDTHHLANYVPQGSVDDLFPGTWYLVRVDEKHRRFYARSSLMRDGPLDAAPESVHSSTANEHFPSPAKKVPRIPPAAEAEPISVTNGGH | soluble
15 | MPGTRFSGKVVLISGSSKGIGQATAVKFAAEGAKIVLNGRSADDVEKTRKLCMEVGAKPWDLLPTVGDITNEDFVKMMVNTVIHNFGKLDILINNAGTLEVDMTGKEGWEMGVDVMDRSWNSNFKSVLMLTQAAMPHLIKTKGDIVNVSTFLSSGPIGVMSMPYYAVPKAALDQMSRSMAHEYMLKGVRLNTVNPGLVSTSFFARLPGVGDDNARKMENYVQSKTEYIPLGRVCQASDVAETILFLADRKVSECIVGQSIIIDGGSRLCCNIDMSDFKEQMAKA | not soluble
16 | MPGVKVKETESFELALKKFKKQCEKAGILSEVRKREHYEKPSIKRKKKAIAARKRAMKKQRKMMDLEHHHHHH | not soluble
17 | MPHTGSQHTLQATPKTAQHTGAQKAPEQAIALKKEQQLKNQEGATSHRKAHTEGCHTQKTRMSADKAGLRHRQGSGEVRARTASTRVEGECSSDGVVMMFCMPARGEEEKASGEARGEDVGSSRESRQGTAHKSTCMHTEAASLQKAGEIGKVEDAKT | not soluble
18 | MPIPKSAKSDYTKEQKDLVGNICQCKDFYKILNVDKKASPDEIRIAFRKRIREVHPDKCKHPSATEASKVVNNAFSLLMDPAKRRQYDLQNAETSNENLYKRCNRNKNQRKQEYSNTQRQNHKKSEPSNGKRNEQNSSFKQDHNSKNHQSNHQKTKNKKSNPYSNQNNFNNTRKDYREEKSGFSWNTGSA | not soluble
19 | MPISRYYDVKRDEKGERYLEPYVTGFLLLRLPLLNKGTAFTEEERRLLGLEGLLPPHVHTLEEQKERVYRRYRLIQSPLEKHIYLRHLQDRNEVLFYALVVDHLEEMLPILYTPTVGEAVREFSHIYRYPRGFTASTKNIDRIDEALQNVPLEDVRLIVATDSSAILGIGDQGYGGMAISIGKLTLYTAAGGVGPDKTLPVELDVGTDREDLLKDPLYLGVRHRRLRGEEYFRFLDRFVEAVRRRYPKALIQWEDFAKETAFQVLERYRKVIPSFNDDIQGTGAVALAGVLSACRLKGERLSDQVVVVYGAGAGGIGVAWALVEGMKREGLSEEEAKARVLVLDSKGLLVEGRSMEDYKRPYAQRPERLWGWRFAGEYPNLLETITNARATVLLGLSGQAGSFTEPVVRAMLANTPRPVIFPLSNPTSATEALPDDLVYWTEGRALVAAGSPFPPVGFKGRTVPIGQGNNAFVFPGLGLGAVLSRAREVTDGMVLEAAYALYDYTREHFPERIYPPVGRLREVSPYVAARVMQRALEEGVAEEARVQGLTLEALLDFVKSRFWEPRYLPYRPAPVI | soluble
20 | MPKAKGKTRRQKFGYSVNRKRLNRNARRKAARGIECSHIRHAWDHAKSVRQNLAEMGLAVDPNRAVPLRKRKVKAMEVDIEERPKELVRKPYVLNDLEAEASLPEKKGNTLSRDLIDYVRYMVENHGEDYKAMARDEKNYYQDTPKQIRSKINVYKRFYPAEWQDFLDSLQKRKMEVELEHHHHHH | not soluble
21 | MPKELWPLTGSRLEGSSMADRRRQRRTSKAGVGGRRVEYKRVPLGFIKAIVKTGHVVVEPSEKVRRNPPRGRFQVLLAGDGEVGYVSDVIGPINSPFIVVRVRERGVIEKLSPGAELIMLVPPKKPPRKGAPRRGSSRGRRGFKKGKARG | soluble
